According to publication PMC8881100, “Biochemical and Molecular Dynamics Study of a Novel GH 43 α-L-Arabinofuranosidase/β-Xylosidase From Caldicellulosiruptor saccharolyticus DSM8903” (Frontiers in Bioengineering and Biotechnology, 2022):

Substrate: O=[N+]([O-])c1ccc(O[C@@H]2O[C@@H](CO)[C@H](O)[C@H]2O)cc1
Test: purified protein
Assay type: biochemical, Caldicellulosiruptor saccharolyticus
Conditions: citric acid phosphate buffer pH 6, 70°C, 0.5 to 3.5 mM substrate

B1: CAX43 (GH43 α-L-arabinofuranosidase/β-xylosidase) (Caldicellulosiruptor saccharolyticus DSM 8903) (protein)
chain: MIPTLWDPNVDEERYKNPIIHADYSDPDVIRVGSDYFLVASSFNCVPGLPILHSRDLINWKIVNYAVERLPSPEYDTPQIGKGIWAPAIRYHEEKFYIYFSMPDDGIYVCYTDDPFGKWSDIHLVKAAKGWIDPCPFWDEDGNAYLVNAFAKSRIGFNSKLCVSRLSADGLRVLDEGKIVFDGAKTQPTIEGPKLYKRNGYYYIFAPAGGVKFGWQTVLRSKDIYGPYEEKIVLHQGKTKINGPHQGAWVETEKGEHWFVHFQDRGPYGRVVHLQPMRWEDNWPVIGVDIDGDGIGEPVEEYRKPNTNYKNEYDFYLECSDHFDKPQISLQWQWHANPQDNWYSLEKRKSYLRLYAVGNLTNNNKVKSIFFMPNLLLQKIPAPEFIAIVKLEVNFNKEGSYAGIIMSGSRYSSIGIKRGQKKLSLVQVLGDVKEDVIENTVAKMPIETSQVFLKISVKEGAVCKFSFSFDGKKFTDFGTEFIPQEAIWVGSKIGLFCINTSGKNGVIQSDYADFDYFKIENFRKEDEC
notes: C-terminal His6 tag; pEASY blunt E2, E. coli BL21 (C43); Ni-NTA purified
For B1, the Km was 1.071 mmol/L and the kcat was 234.674 s⁻¹.
